Data reported in doi:10.1101/2025.07.28.666932, “Mechanism-Guided Engineering of Fluorinase Unlocks Efficient Nucleophilic Biofluorination” (bioRxiv, 2025).
Changes are numbered by the printed parent chain. Names and notes keep the numbering of the source. Values joined by “and” are separate entries in the source; they are usually repeats but may differ in a detail not shown here. Equal values may be shown once.

Columns and labels:
[1] = target: the molecule itself; assay: mass photometry; free enzyme, 500 nM, 30 mM HEPES buffer, pH 7.5, 20 °C; histograms fitted to the sum of five Gaussian distributions
[2] = target: the molecule itself; assay: not stated; oligomeric state under all conditions of the kinetic experiments (Fig. S8); method not given
[3] = target: the molecule itself; assay: mass photometry; in the presence of substrates, under the reaction conditions; fitted globally with the kinetic data (association constants monomer to trimer K_(a,3E), hexamer K_(a,6E), higher oligomers K_(a,agg))

B1: fluorinase FlA1 from Streptomyces sp. strain MA37 (5'-fluoro-5'-deoxyadenosine synthase), wild type (enzyme, UniProt W0W999 1-299, looked up)
chain: MAANGSQRPIIAFMSDLGTTDDSVAQCKGLMHSICPGVTVVDVCHSMTPWDVEEGARYIVDLPRFFPEGTVFATTTYPATGTTTRSVAVRIRQAAKGGARGQWAGSGDGFERADGSYIYIAPNNGLLTTVLEEHGYIEAYEVTSTKVIPANPEPTFYSREMVAIPSAHLAAGFPLAEVGRRLDDSEIVRFHRPAVEISGEALSGVVTAIDHPFGNIWTNIHRTDLEKAGIGQGKHLKIILDDVLPFEAPLTPTFADAGAIGNIAFYLNSRGYLSLARNAASLAYPYNLKAGLKVRVEAR
notes: fluorinase FlA1 (5'-fluoro-5'-deoxyadenosine synthase), Streptomyces sp. strain MA37; Exists as trimers, hexamers and higher oligomers; also called wild-type FlA1; wild-type fluorinase; source: overexpressed in Escherichia coli, purified
stoichiometry N [1]: 3 and 6

B2: fluorinase FlA1 variant C44T (enzyme, Streptomyces sp. strain MA37, UniProt W0W999 1-299, looked up)
chain: B1 chain with C44T
notes: fluorinase FlA1, Streptomyces sp. strain MA37, with C44T; everywhere else C44T; also called FlA1+C44T
stoichiometry N [2]: 6

B3: fluorinase FlA1 variant A279R (enzyme, Streptomyces sp. strain MA37, UniProt W0W999 1-299, looked up)
chain: B1 chain with A279R
notes: fluorinase FlA1, Streptomyces sp. strain MA37, wild type with A279R
stoichiometry N [3]: 6

B4: fluorinase FlA1 double mutant W50F+A279R (enzyme, Streptomyces sp. strain MA37, UniProt W0W999 1-299, looked up)
chain: B1 chain with W50F, A279R
notes: fluorinase FlA1, Streptomyces sp. strain MA37, wild type with W50F and A279R; also called A279R+W50F; FlA1+A279R+W50F
stoichiometry N [3]: 6

B5: fluorinase FlA1 variant W50F (enzyme, Streptomyces sp. strain MA37, UniProt W0W999 1-299, looked up)
chain: B1 chain with W50F
notes: fluorinase FlA1, Streptomyces sp. strain MA37, wild type with W50F
binding result [3]: binds
